Test results: paper PMC10786891, “Massively parallel profiling of RNA-targeting CRISPR-Cas13d”

T1: EsCas13d, nuclease-dead (Eubacterium siraeum, UniProt B0MS50, R295A;H300A;R849A;H854A)
T1 sequence: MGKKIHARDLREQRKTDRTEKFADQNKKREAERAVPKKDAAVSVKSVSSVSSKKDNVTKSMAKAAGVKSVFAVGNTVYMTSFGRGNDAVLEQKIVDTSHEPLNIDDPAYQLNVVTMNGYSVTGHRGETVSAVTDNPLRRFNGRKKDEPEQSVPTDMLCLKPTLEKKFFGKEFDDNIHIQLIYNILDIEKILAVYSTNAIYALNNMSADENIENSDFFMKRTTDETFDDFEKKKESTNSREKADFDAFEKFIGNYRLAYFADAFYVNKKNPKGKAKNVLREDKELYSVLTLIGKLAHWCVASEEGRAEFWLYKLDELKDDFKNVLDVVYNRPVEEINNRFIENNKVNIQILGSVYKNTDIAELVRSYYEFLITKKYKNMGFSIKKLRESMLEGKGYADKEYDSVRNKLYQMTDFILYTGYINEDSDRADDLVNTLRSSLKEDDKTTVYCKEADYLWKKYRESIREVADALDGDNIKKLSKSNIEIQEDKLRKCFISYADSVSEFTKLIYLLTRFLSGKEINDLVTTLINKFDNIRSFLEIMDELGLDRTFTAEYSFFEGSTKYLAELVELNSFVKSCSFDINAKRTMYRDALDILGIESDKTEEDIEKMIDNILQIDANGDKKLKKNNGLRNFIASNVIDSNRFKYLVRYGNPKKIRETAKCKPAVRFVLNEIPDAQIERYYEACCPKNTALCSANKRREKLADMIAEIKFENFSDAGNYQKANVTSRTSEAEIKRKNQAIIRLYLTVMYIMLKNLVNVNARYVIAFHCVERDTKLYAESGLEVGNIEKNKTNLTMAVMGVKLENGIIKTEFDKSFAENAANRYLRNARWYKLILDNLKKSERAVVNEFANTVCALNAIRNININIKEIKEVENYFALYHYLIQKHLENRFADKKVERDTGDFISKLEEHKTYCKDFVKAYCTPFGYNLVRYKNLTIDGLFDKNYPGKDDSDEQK

B1: target 1 G5U,U11A (mixed)
RNA 1: CACCCGUGCAAAAAUGCAGGGGUCUAAAACUGAGCGGAUAACCUCUCUAUGG
RNA 2: GGGAAUGGAUCCACAUCUACGAAUUCGUACCAUAGAGAGGAUAUCCUCUCACCGAGAUCGGAAGAGCACACGU
B2: target 1 C6A,A18G (mixed)
RNA 1: CACCCGUGCAAAAAUGCAGGGGUCUAAAACUGAGCGGAUAACCUCUCUAUGG
RNA 2: GGGAAUGGAUCCACAUCUACGAAUUCGUACCAUGGAGAGGUUAUCAGCUCACCGAGAUCGGAAGAGCACACGU
B3: target 1 C2A,U3G (mixed)
RNA 1: CACCCGUGCAAAAAUGCAGGGGUCUAAAACUGAGCGGAUAACCUCUCUAUGG
RNA 2: GGGAAUGGAUCCACAUCUACGAAUUCGUACCAUAGAGAGGUUAUCCGCGAACCGAGAUCGGAAGAGCACACGU
B4: target 1 G5C,A14C (mixed)
RNA 1: CACCCGUGCAAAAAUGCAGGGGUCUAAAACUGAGCGGAUAACCUCUCUAUGG
RNA 2: GGGAAUGGAUCCACAUCUACGAAUUCGUACCAUAGAGCGGUUAUCCCCUCACCGAGAUCGGAAGAGCACACGU
B5: target 1 U8G,U10G (mixed)
RNA 1: CACCCGUGCAAAAAUGCAGGGGUCUAAAACUGAGCGGAUAACCUCUCUAUGG
RNA 2: GGGAAUGGAUCCACAUCUACGAAUUCGUACCAUAGAGAGGUGAGCCGCUCACCGAGAUCGGAAGAGCACACGU
B6: target 1 insC 3' of 8,insU 3' of 4 (mixed)
RNA 1: CACCCGUGCAAAAAUGCAGGGGUCUAAAACUGAGCGGAUAACCUCUCUAUGG
RNA 2: GGGAAUGGAUCCACAUCUACGAAUUCGUACCAUAGAGAGGUUAUCCCGCUUCACCGAGAUCGGAAGAGCACACGU
B7: target 1 del15,del22 (mixed)
RNA 1: CACCCGUGCAAAAAUGCAGGGGUCUAAAACUGAGCGGAUAACCUCUCUAUGG
RNA 2: GGGAAUGGAUCCACAUCUACGAAUUCGUACAUAGAAGGUUAUCCGCUCACCGAGAUCGGAAGAGCACACGU
B8: target 1 insC 3' of 14,insG 3' of 1 (mixed)
RNA 1: CACCCGUGCAAAAAUGCAGGGGUCUAAAACUGAGCGGAUAACCUCUCUAUGG
RNA 2: GGGAAUGGAUCCACAUCUACGAAUUCGUACCAUAGAGACGGUUAUCCGCUCAGCCGAGAUCGGAAGAGCACACGU
B9: target 1 A16C,G17C (mixed)
RNA 1: CACCCGUGCAAAAAUGCAGGGGUCUAAAACUGAGCGGAUAACCUCUCUAUGG
RNA 2: GGGAAUGGAUCCACAUCUACGAAUUCGUACCAUACCGAGGUUAUCCGCUCACCGAGAUCGGAAGAGCACACGU
B10: target 1 G17A,U19G (mixed)
RNA 1: CACCCGUGCAAAAAUGCAGGGGUCUAAAACUGAGCGGAUAACCUCUCUAUGG
RNA 2: GGGAAUGGAUCCACAUCUACGAAUUCGUACCAGAAAGAGGUUAUCCGCUCACCGAGAUCGGAAGAGCACACGU
B11: target 1 insG 3' of 8,insA 3' of 8 (mixed)
RNA 1: CACCCGUGCAAAAAUGCAGGGGUCUAAAACUGAGCGGAUAACCUCUCUAUGG
RNA 2: GGGAAUGGAUCCACAUCUACGAAUUCGUACCAUAGAGAGGUUAUGACCGCUCACCGAGAUCGGAAGAGCACACGU
B12: target 1 insG 3' of 22,insA 3' of 11 (mixed)
RNA 1: CACCCGUGCAAAAAUGCAGGGGUCUAAAACUGAGCGGAUAACCUCUCUAUGG
RNA 2: GGGAAUGGAUCCACAUCUACGAAUUCGUACGCAUAGAGAGGUAUAUCCGCUCACCGAGAUCGGAAGAGCACACGU
B13: target 1 A1C,C6G (mixed)
RNA 1: CACCCGUGCAAAAAUGCAGGGGUCUAAAACUGAGCGGAUAACCUCUCUAUGG
RNA 2: GGGAAUGGAUCCACAUCUACGAAUUCGUACCAUAGAGAGGUUAUCGGCUCCCCGAGAUCGGAAGAGCACACGU
B14: target 1 insU 3' of 21,insA 3' of 8 (mixed)
RNA 1: CACCCGUGCAAAAAUGCAGGGGUCUAAAACUGAGCGGAUAACCUCUCUAUGG
RNA 2: GGGAAUGGAUCCACAUCUACGAAUUCGUACCUAUAGAGAGGUUAUACCGCUCACCGAGAUCGGAAGAGCACACGU
B15: target 1 insC 3' of 14,insC 3' of 1 (mixed)
RNA 1: CACCCGUGCAAAAAUGCAGGGGUCUAAAACUGAGCGGAUAACCUCUCUAUGG
RNA 2: GGGAAUGGAUCCACAUCUACGAAUUCGUACCAUAGAGACGGUUAUCCGCUCACCCGAGAUCGGAAGAGCACACGU
B16: target 1 C2U,U8G (mixed)
RNA 1: CACCCGUGCAAAAAUGCAGGGGUCUAAAACUGAGCGGAUAACCUCUCUAUGG
RNA 2: GGGAAUGGAUCCACAUCUACGAAUUCGUACCAUAGAGAGGUUAGCCGCUUACCGAGAUCGGAAGAGCACACGU
B17: target 1 insC 3' of 14,insU 3' of 1 (mixed)
RNA 1: CACCCGUGCAAAAAUGCAGGGGUCUAAAACUGAGCGGAUAACCUCUCUAUGG
RNA 2: GGGAAUGGAUCCACAUCUACGAAUUCGUACCAUAGAGACGGUUAUCCGCUCAUCCGAGAUCGGAAGAGCACACGU
B18: target 1 del3 (mixed)
RNA 1: CACCCGUGCAAAAAUGCAGGGGUCUAAAACUGAGCGGAUAACCUCUCUAUGG
RNA 2: GGGAAUGGAUCCACAUCUACGAAUUCGUACCAUAGAGAGGUUAUCCGCCACCGAGAUCGGAAGAGCACACGU
B19: target 1 A9C,U10C (mixed)
RNA 1: CACCCGUGCAAAAAUGCAGGGGUCUAAAACUGAGCGGAUAACCUCUCUAUGG
RNA 2: GGGAAUGGAUCCACAUCUACGAAUUCGUACCAUAGAGAGGUCCUCCGCUCACCGAGAUCGGAAGAGCACACGU
B20: target 1 U8C,U19A (mixed)
RNA 1: CACCCGUGCAAAAAUGCAGGGGUCUAAAACUGAGCGGAUAACCUCUCUAUGG
RNA 2: GGGAAUGGAUCCACAUCUACGAAUUCGUACCAAAGAGAGGUUACCCGCUCACCGAGAUCGGAAGAGCACACGU
B21: target 1 A1G,C4G (mixed)
RNA 1: CACCCGUGCAAAAAUGCAGGGGUCUAAAACUGAGCGGAUAACCUCUCUAUGG
RNA 2: GGGAAUGGAUCCACAUCUACGAAUUCGUACCAUAGAGAGGUUAUCCGGUCGCCGAGAUCGGAAGAGCACACGU
B22: target 1 U11G,C21U (mixed)
RNA 1: CACCCGUGCAAAAAUGCAGGGGUCUAAAACUGAGCGGAUAACCUCUCUAUGG
RNA 2: GGGAAUGGAUCCACAUCUACGAAUUCGUACUAUAGAGAGGGUAUCCGCUCACCGAGAUCGGAAGAGCACACGU
B23: target 1 A1C,C4G (mixed)
RNA 1: CACCCGUGCAAAAAUGCAGGGGUCUAAAACUGAGCGGAUAACCUCUCUAUGG
RNA 2: GGGAAUGGAUCCACAUCUACGAAUUCGUACCAUAGAGAGGUUAUCCGGUCCCCGAGAUCGGAAGAGCACACGU
B24: target 1 insU 3' of 12,insA 3' of 3 (mixed)
RNA 1: CACCCGUGCAAAAAUGCAGGGGUCUAAAACUGAGCGGAUAACCUCUCUAUGG
RNA 2: GGGAAUGGAUCCACAUCUACGAAUUCGUACCAUAGAGAGGUUUAUCCGCUACACCGAGAUCGGAAGAGCACACGU
B25: target 1 C4G (mixed)
RNA 1: CACCCGUGCAAAAAUGCAGGGGUCUAAAACUGAGCGGAUAACCUCUCUAUGG
RNA 2: GGGAAUGGAUCCACAUCUACGAAUUCGUACCAUAGAGAGGUUAUCCGGUCACCGAGAUCGGAAGAGCACACGU
B26: target 1 complement block 5-9 (mixed)
RNA 1: CACCCGUGCAAAAAUGCAGGGGUCUAAAACUGAGCGGAUAACCUCUCUAUGG
RNA 2: GGGAAUGGAUCCACAUCUACGAAUUCGUACCAUAGAGAGGUUUAGGCCUCACCGAGAUCGGAAGAGCACACGU
B27: target 1 U3G,C4A (mixed)
RNA 1: CACCCGUGCAAAAAUGCAGGGGUCUAAAACUGAGCGGAUAACCUCUCUAUGG
RNA 2: GGGAAUGGAUCCACAUCUACGAAUUCGUACCAUAGAGAGGUUAUCCGAGCACCGAGAUCGGAAGAGCACACGU
B28: target 1 insC 3' of 15,insC 3' of 10 (mixed)
RNA 1: CACCCGUGCAAAAAUGCAGGGGUCUAAAACUGAGCGGAUAACCUCUCUAUGG
RNA 2: GGGAAUGGAUCCACAUCUACGAAUUCGUACCAUAGAGCAGGUUCAUCCGCUCACCGAGAUCGGAAGAGCACACGU

molecular target: T1, EsCas13d, nuclease-dead; assay: crRNA (strand 1, pre-loaded); Mg2+; 40 mM Tris-HCl pH 7.5, 150 mM NaCl, 6 mM MgCl2, 1 mM DTT, 0.1% Tween-20, 0.2 mg/ml BSA; 25 C; 10 min per concentration, then washed; settings: tags: His6-TwinStrep-SUMO cleaved; N-terminal SNAP kept (SNAP-Surface 488); label: 3' end held by stalled T7 RNA polymerase

Q: With B1 as the binder, how does the Kd read?
A: The Kd was ~60 nM.

Q: With B2 as the binder, how does the Kd read?
A: The Kd was 98 ± 20 nM.

Q: How did the Kd turn out when B3 was run?
A: The Kd was 8.6 ± 0.7 nM.

Q: Which Kd does the source give for B4 here?
A: Its Kd is 14.5 ± 1.5 nM.

Q: How did the Kd turn out when B5 was run?
A: Its Kd is 20 ± 1.1 nM.

Q: Which Kd does the source give for B6 here?
A: Its Kd is 12.2 ± 1 nM.

Q: How did the Kd turn out when B7 was run?
A: Its Kd is 54 ± 23 nM.

Q: For B8, which Kd is on record?
A: Its Kd is 50 ± 12 nM.

Q: With B9 as the binder, how does the Kd read?
A: The Kd was ~100 nM.

Q: For B10, which Kd is on record?
A: The Kd was 51 ± 6 nM.

Q: With B11 as the binder, how does the Kd read?
A: The Kd was 27.2 ± 1.4 nM.

Q: B12 was tested. Which Kd did it give?
A: The Kd was 33 ± 4 nM.

Q: With B13 as the binder, how does the Kd read?
A: Its Kd is 12.1 ± 1.1 nM.

Q: For B14, which Kd is on record?
A: The Kd was 48 ± 4 nM.

Q: B15 was tested. Which Kd did it give?
A: The Kd was 50 ± 11 nM.

Q: With B16 as the binder, how does the Kd read?
A: The Kd was 17.1 ± 0.9 nM.

Q: B17 was tested. Which Kd did it give?
A: The Kd was ~50 nM.

Q: How did the Kd turn out when B18 was run?
A: The Kd was 28 ± 5 nM.

Q: How did the Kd turn out when B19 was run?
A: Its Kd is 15.1 ± 1.5 nM.

Q: Which Kd does the source give for B20 here?
A: The Kd was 59 ± 9 nM.

Q: For B21, which Kd is on record?
A: Its Kd is 5.2 ± 0.34 nM.

Q: For B22, which Kd is on record?
A: Its Kd is 9.4 ± 0.5 nM.

Q: Which Kd does the source give for B23 here?
A: The Kd was 10.7 ± 1 nM.

Q: For B24, which Kd is on record?
A: The Kd was 5.8 ± 0.4 nM.

Q: Which Kd does the source give for B25 here?
A: Its Kd is 5.3 ± 0.8 nM.

Q: With B26 as the binder, how does the Kd read?
A: The Kd was 17.2 ± 0.7 nM.

Q: For B27, which Kd is on record?
A: Its Kd is 4.19 ± 0.3 nM.

Q: For B28, which Kd is on record?
A: Its Kd is 17.3 ± 1.1 nM.
